In patent US20200087400A1 (EUREKA THERAPEUTICS, published 2020):
Substitutions are numbered along the chain they refer to.

B1: PSA146/HLA-A*02:01-specific scFv phage clone #3 (scFv, V domains shown)
VH: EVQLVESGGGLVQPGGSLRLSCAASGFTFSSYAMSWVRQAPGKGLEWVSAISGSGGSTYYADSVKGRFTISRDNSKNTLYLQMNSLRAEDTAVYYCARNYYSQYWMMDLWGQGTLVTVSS
VL: QSVLTQPPSVSGAPGQRVTISCTGSSSNFGAGYDVHWYQQLPGAAPKLLIYGDTNRPSGVPDRFSGSKSGTSASLAITGLQAEDEADYYCQSYDTSLSGSVFGGGTKLTVLG
B2: PSA146/HLA-A*02:01-specific scFv phage clone #9 (scFv, V domains shown)
VH: QVQLVQSGAEVKKPGASVKVSCKASGYTFTSYGISWVRQAPGQGLEWMGWISAYNGNTNYAQKLQGRVTMTTDTSTSTAYMELRSLRSDDTAVYYCARSSQYYVWDSWGQGTLVTVSS
VL: B1 VL with L4V, A44T, D53N, T54S, T95S, S100W
B3: PSA146/HLA-A*02:01-specific scFv phage clone #5 (scFv, V domains shown)
VH: QVQLVQSGAEVKKPGDSVKVSCKPSGYNFLNYGINWVRQAPGQGLEWMGWISTYTGNTNYAQKLQGRVTFTTDTSTSTAYMEMRSLRSDDTAVYYCARSSEYYTWDHWGQGTLVTVSS
VL: B1 VL with F29I, A44T, D53N, T54S, T95S, S100W
B4: PSA146/HLA-A*02:01-specific scFv phage clone #6 (scFv, V domains shown)
VH: EVQLVQSGAEVKKPGASVKVSCKASGYTFTGYYIHWVRQAPGQGLEWMGGFDPEDGETIYAQKFQDRVTMTADTSTDTAYMELSSLRSEDTAVYYCARYGFDYWGQGTLVTVSS
VL: QAVVTQEPSLTVSPGGTVTLTCASSTGAVTSGYYPNWFQLKPGQAPRALIYTTGKKHSWAPARFSGSLLGGKAALTLSGVQPEDEAEYYCLLYSGGVWVFGGGTKLTVLG
B5: PSA146/HLA-A*02:01-specific scFv phage clone #17 (scFv, V domains shown)
VH: QMQLVQSGAEVKKPGESLKISCKGSGYSFTSYWIGWVRQMPGKGLEWMGIIYPGDSDTRYSPSFQGQVTISADKSISTAYLQWSSLKASDTAMYYCARLVVPDAFDIWGQGTMVTVSS
VL: QSVVTQPPSVSAAPGQKVTISCSGSSSNIGNNYVSWYQQLPGTAPKLLIYDNYKRPSGIPDRFSGSKSGTSATLGITGLQTGDEADYYCGTWDSSLSAGVFGGGTKLTVLG
B6: PSA146/HLA-A*02:01-specific scFv phage clone #2 (scFv, V domains shown)
VH: EVQLVQSGAEVKRPGSSVKVSCKASGGTFSSYAINWVRRAPGQGLEWMGKIIPIPGITNYAQKFQDRVTFTADTSTNIAYMELSSLRSEDTAMYYCARSYKWGSSLVDAWGQGTLVTVSS
VL: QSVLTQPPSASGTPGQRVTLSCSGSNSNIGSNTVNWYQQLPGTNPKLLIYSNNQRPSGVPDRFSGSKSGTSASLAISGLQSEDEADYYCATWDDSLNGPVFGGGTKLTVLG

The binders below were run against T1, Bio-P19 member A2E-1 (chain 2: C-terminal BirA substrate peptide (BSP), enzymatically biotinylated; its letters are not printed in the patent and it is left out) (assay: phage ELISA, streptavidin plate, anti-M13-HRP).
T1 construct: also called biotinylated control peptide A2E-1/HLA-A*02:01 monomer
T1 sequence (b2m, as listed by the source): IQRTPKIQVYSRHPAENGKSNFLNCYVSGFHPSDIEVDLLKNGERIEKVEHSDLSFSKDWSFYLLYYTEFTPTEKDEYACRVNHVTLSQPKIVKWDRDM
Summary of the method: (§1)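 Phage clones selected by panning against PSA146/HLA-A*02:01 are tested by ELISA in coated streptavidin plates, with HRP-labelled anti-M13 and substrate development read at 450 nm.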

Row | Binder | binding result
1 | B1 | no binding
2 | B2 | no binding
3 | B3 | no binding
4 | B4 | no binding
5 | B5 | no binding
6 | B6 | no binding

These binders were tested against T2, Bio-P19 member A2E-10 (chain 2: C-terminal BirA substrate peptide (BSP), enzymatically biotinylated; its letters are not printed in the patent and it is left out) (assay: phage ELISA, streptavidin plate, anti-M13-HRP).
T2 construct: also called biotinylated control peptide A2E-10/HLA-A*02:01 monomer
T2 sequence (b2m, as listed by the source): as above
Summary of the method: as §1

Row | Binder | binding result
7 | B1 | no binding
8 | B2 | no binding
9 | B3 | no binding
10 | B4 | no binding
11 | B5 | no binding
12 | B6 | no binding

What follows are binders tested against T3, Bio-P19 member A2E-11 (chain 2: C-terminal BirA substrate peptide (BSP), enzymatically biotinylated; its letters are not printed in the patent and it is left out) (assay: phage ELISA, streptavidin plate, anti-M13-HRP).
T3 construct: also called biotinylated control peptide A2E-11/HLA-A*02:01 monomer
T3 sequence (b2m, as listed by the source): as above
Summary of the method: as §1

Row | Binder | binding result
13 | B1 | no binding
14 | B2 | no binding
15 | B3 | no binding
16 | B4 | no binding
17 | B5 | no binding
18 | B6 | no binding

The binders below were run against T4, Bio-P19 member A2E-15 (chain 2: C-terminal BirA substrate peptide (BSP), enzymatically biotinylated; its letters are not printed in the patent and it is left out) (assay: phage ELISA, streptavidin plate, anti-M13-HRP).
T4 construct: also called biotinylated control peptide A2E-15/HLA-A*02:01 monomer
T4 sequence (b2m, as listed by the source): as above
Summary of the method: as §1

Row | Binder | binding result
19 | B1 | no binding
20 | B2 | no binding
21 | B3 | no binding
22 | B4 | no binding
23 | B5 | no binding
24 | B6 | no binding

Each binder was assayed against T5, Bio-P19 member A2E-16 (chain 2: C-terminal BirA substrate peptide (BSP), enzymatically biotinylated; its letters are not printed in the patent and it is left out) (assay: phage ELISA, streptavidin plate, anti-M13-HRP).
T5 construct: also called biotinylated control peptide A2E-16/HLA-A*02:01 monomer
T5 sequence (b2m, as listed by the source): as above
Summary of the method: as §1

Row | Binder | binding result
25 | B1 | no binding
26 | B2 | no binding
27 | B3 | no binding
28 | B4 | no binding
29 | B5 | no binding
30 | B6 | no binding

The binders below were run against T6, Bio-P19 member A2E-17 (chain 2: C-terminal BirA substrate peptide (BSP), enzymatically biotinylated; its letters are not printed in the patent and it is left out) (assay: phage ELISA, streptavidin plate, anti-M13-HRP).
T6 construct: also called biotinylated control peptide A2E-17/HLA-A*02:01 monomer
T6 sequence (b2m, as listed by the source): as above
Summary of the method: as §1

Row | Binder | binding result
31 | B1 | no binding
32 | B2 | no binding
33 | B3 | no binding
34 | B4 | no binding
35 | B5 | no binding
36 | B6 | no binding

The binders below were run against T7, Bio-P19 member A2E-19 (chain 2 carries a C-terminal BirA substrate peptide (BSP), enzymatically biotinylated; the BSP letters are not given in the patent and are left out) (assay: phage ELISA, streptavidin plate, anti-M13-HRP).
T7 construct: also called biotinylated control peptide A2E-19/HLA-A*02:01 monomer
T7 sequence (beta, as listed by the source): as the sequence (b2m, as listed by the source) above
Summary of the method: as §1

Row | Binder | binding result
37 | B1 | no binding
38 | B2 | no binding
39 | B3 | no binding
40 | B4 | no binding
41 | B5 | no binding
42 | B6 | no binding

These binders were tested against T8, Bio-P19 member A2E-21 (chain 2 carries a C-terminal BirA substrate peptide (BSP), enzymatically biotinylated; the BSP letters are not given in the patent and are left out) (assay: phage ELISA, streptavidin plate, anti-M13-HRP).
T8 construct: also called biotinylated control peptide A2E-21/HLA-A*02:01 monomer
T8 sequence (beta, as listed by the source): as the sequence (b2m, as listed by the source) above
Summary of the method: as §1

Row | Binder | binding result
43 | B1 | no binding
44 | B2 | no binding
45 | B3 | no binding
46 | B4 | no binding
47 | B5 | no binding
48 | B6 | no binding

Each binder was assayed against T9, Bio-P19 member A2E-23 (chain 2 carries a C-terminal BirA substrate peptide (BSP), enzymatically biotinylated; the BSP letters are not given in the patent and are left out) (assay: phage ELISA, streptavidin plate, anti-M13-HRP).
T9 construct: also called biotinylated control peptide A2E-23/HLA-A*02:01 monomer
T9 sequence (beta, as listed by the source): as the sequence (b2m, as listed by the source) above
Summary of the method: as §1

Row | Binder | binding result
49 | B1 | no binding
50 | B2 | no binding
51 | B3 | no binding
52 | B4 | no binding
53 | B6 | no binding

These binders were tested against T10, Bio-P19 member A2E-2 (chain 2 carries a C-terminal BirA substrate peptide (BSP), enzymatically biotinylated; the BSP letters are not given in the patent and are left out) (assay: phage ELISA, streptavidin plate, anti-M13-HRP).
T10 construct: also called biotinylated control peptide A2E-2/HLA-A*02:01 monomer
T10 sequence (beta, as listed by the source): as the sequence (b2m, as listed by the source) above
Summary of the method: as §1

Row | Binder | binding result
54 | B1 | no binding
55 | B2 | no binding
56 | B3 | no binding
57 | B4 | no binding
58 | B6 | no binding

What follows are binders tested against T11, Bio-P19 member A2E-3 (chain 2 carries a C-terminal BirA substrate peptide (BSP), enzymatically biotinylated; the BSP letters are not given in the patent and are left out) (assay: phage ELISA, streptavidin plate, anti-M13-HRP).
T11 construct: also called biotinylated control peptide A2E-3/HLA-A*02:01 monomer
T11 sequence (beta, as listed by the source): as the sequence (b2m, as listed by the source) above
Summary of the method: as §1

Row | Binder | binding result
59 | B1 | no binding
60 | B2 | no binding
61 | B3 | no binding
62 | B4 | no binding
63 | B6 | no binding

The binders below were run against T12, Bio-P19 member A2E-4 (chain 2 carries a C-terminal BirA substrate peptide (BSP), enzymatically biotinylated; the BSP letters are not given in the patent and are left out) (assay: phage ELISA, streptavidin plate, anti-M13-HRP).
T12 construct: also called biotinylated control peptide A2E-4/HLA-A*02:01 monomer
T12 sequence (beta, as listed by the source): as the sequence (b2m, as listed by the source) above
Summary of the method: as §1

Row | Binder | binding result
64 | B1 | no binding
65 | B2 | no binding
66 | B3 | no binding
67 | B4 | no binding
68 | B5 | no binding
69 | B6 | no binding

These binders were tested against T13, Bio-P19 member A2E-5 (chain 2 carries a C-terminal BirA substrate peptide (BSP), enzymatically biotinylated; the BSP letters are not given in the patent and are left out) (assay: phage ELISA, streptavidin plate, anti-M13-HRP).
T13 construct: also called biotinylated control peptide A2E-5/HLA-A*02:01 monomer
T13 sequence (beta, as listed by the source): as the sequence (b2m, as listed by the source) above
Summary of the method: as §1

Row | Binder | binding result
70 | B1 | no binding
71 | B2 | no binding
72 | B3 | no binding
73 | B4 | no binding
74 | B5 | no binding
75 | B6 | no binding

What follows are binders tested against T14, Bio-P19 member A2E-7 (chain 2 (heavy): C-terminal BirA substrate peptide, biotinylated there by BirA; tag letters not given, left out) (assay: phage ELISA, streptavidin plate, anti-M13-HRP).
T14 construct: also called biotinylated control peptide A2E-7/HLA-A*02:01 monomer; not shown: BirA substrate peptide (BSP) tag at the C-terminus of the heavy chain
T14 sequence (b2m, as listed by the source): as above
Summary of the method: as §1

Row | Binder | binding result
76 | B1 | no binding
77 | B2 | no binding
78 | B3 | no binding
79 | B4 | no binding
80 | B5 | no binding
81 | B6 | no binding

These binders were tested against T15, Bio-P19 member A2E-8 (chain 2 (heavy): C-terminal BirA substrate peptide, biotinylated there by BirA; tag letters not given, left out) (assay: phage ELISA, streptavidin plate, anti-M13-HRP).
T15 construct: also called biotinylated control peptide A2E-8/HLA-A*02:01 monomer; not shown: BirA substrate peptide (BSP) tag at the C-terminus of the heavy chain
T15 sequence (b2m, as listed by the source): as above
Summary of the method: as §1

Row | Binder | binding result
82 | B1 | no binding
83 | B2 | no binding
84 | B3 | no binding
85 | B4 | no binding
86 | B5 | no binding
87 | B6 | no binding

These binders were tested against T16, Bio-P19 member A2E-9 (chain 2 (heavy): C-terminal BirA substrate peptide, biotinylated there by BirA; tag letters not given, left out) (assay: phage ELISA, streptavidin plate, anti-M13-HRP).
T16 construct: also called biotinylated control peptide A2E-9/HLA-A*02:01 monomer; not shown: BirA substrate peptide (BSP) tag at the C-terminus of the heavy chain
T16 sequence (b2m, as listed by the source): as above
Summary of the method: as §1

Row | Binder | binding result
88 | B1 | no binding
89 | B2 | no binding
90 | B3 | no binding
91 | B4 | no binding
92 | B5 | no binding
93 | B6 | no binding
